One assay has as its system FGF21 receptor. Description: Erk1/2 phosphorylation assay: agonist activity in 293T HEK hKLB cells. In kind it is cell-based, human. To be noted: for IC50: full length FGF21 analogs, tested in triplicate. The method, then: Cells were cultured in 10% Fetal Bovine Serum containing DMEM High glucose GLUTAMAX® at 37 C, 95% humidity, 5% CO2. For generating the cell line with stable expression, human KLB gene was synthesized by Genscript and subcloned into pcDNA3.1(+) with ZEOCIN® resistance vector (INVITROGEN®) by NheI and NotI restriction enzyme sites. HEK 293T cells were obtained from ATCC and were transiently transfected at 80% confluency using Lipofectamine 3000 (Invitrogen). Selection for KLB-expressing cells was initiated 48 hours post-transfection in the growth media containing 100 μg/ml of ZEOCIN® (Gibco) and continued for 4 weeks with fresh media added every third day. Human KLB expression in pooled cells was confirmed by Western blot and a functional FGF21 MAPK phosphorylation assay.
293 HEK cells expressing hKLB were plated to 90% confluency in 96 well plates coated with poly-D-Lysine. Cells were serum starved for three hours in 0.1% BSA containing media prior to stimulation with protein and/or an antagonist peptide for ten minutes at 37° C. The cell lysate was used for the detection of phospho-Erk1/2 levels by AlphaSureFire kit using the prescribed protocol. The degree of biochemical activation was recorded and analyzed using Origin software by logistic curve fitting. Tests at each concentration were done in triplicates, and the standard deviation is as shown in the graphs. The calculation of maximal activities was done keeping the FGF21 157-181 or FGF19 169-194 peptide activity as standard. The difference between the Erk1/2 phosphorylation signal for the highest (10 μM) and the lowest (0 μM) tested dose for native peptide was considered as 100% and accordingly all the other values were assigned.

The target of a further assay is T1, mouse KLB (Mus musculus, UniProt P16092+Q99N32).
T1 construct: expressed in transfected cells
Briefly: agonism in cells overexpressing mouse KLB. The format is cell-based. The note with it: FIG. 11B, read-out: potency (agonism).

Assay [1] can be described thus: in vivo administration of FGF analogs to mice on diabetogenic diet. The note with it: 0.3 or 1.0 mg/kg daily subcutaneous, relative to native FGF21; for change in body weight: 6 days. Also noted: species or system C57Bl/6 mice. Here is the method: C57Bl/6 mice were obtained from Jackson Laboratories and fed a diabetogenic diet from Research Diets: a high-sucrose diet with 58% kcal from fat. Mice were group-housed on a 12:12-h light-dark cycle at 22° C. with free access to food and water. All studies were approved by and performed according to the guidelines of the Institutional Animal Care and Use Committee of the University of Cincinnati. All mice were treated by daily subcutaneous injections delivered in physiologically buffered saline at a dose of 0.3 or 1 mg/kg. Animals were weighed and food consumption was measured each day.
Unless indicated otherwise, all statistical analyses were performed using GraphPad Prism. The analysis of the results obtained in the in vivo experiments was performed using one-way ANOVAs followed by Tukey post hoc tests. P values lower than 0.05 were considered significant. The results are presented as means±s.e.m. of 7-8 replicates per group. Receptor activation data is ±s.d.
The effect of FGF analog V2-0278-1A on mice was investigated by administering either vehicle, FGF21 (at 0.3 mg/kg or 1.0 mg/kg) or V2-0278-1A (at 0.3 mg/kg or 1.0 mg/kg) and monitoring weight over the course of 6 days of treatment.

Setting [2] is: FIG. 11A, cells overexpressing human KLB, read-out: potency (agonism).
Setting [3] is: FIGS. 9A/9B, full length proteins, Erk1/2 phosphorylation, read-out: EC-50.
[4] abbreviates: FIG. 12, cells overexpressing human KLB, read-out: potency.

Several values for one entry are separate records, joined by “and”; a condition that tells them apart may be missing. Equal values may be shown once. Read-outs that look alike come from different tables or passages of the source.

FGF21 receptor, sequence (Q86Z14 whole entry): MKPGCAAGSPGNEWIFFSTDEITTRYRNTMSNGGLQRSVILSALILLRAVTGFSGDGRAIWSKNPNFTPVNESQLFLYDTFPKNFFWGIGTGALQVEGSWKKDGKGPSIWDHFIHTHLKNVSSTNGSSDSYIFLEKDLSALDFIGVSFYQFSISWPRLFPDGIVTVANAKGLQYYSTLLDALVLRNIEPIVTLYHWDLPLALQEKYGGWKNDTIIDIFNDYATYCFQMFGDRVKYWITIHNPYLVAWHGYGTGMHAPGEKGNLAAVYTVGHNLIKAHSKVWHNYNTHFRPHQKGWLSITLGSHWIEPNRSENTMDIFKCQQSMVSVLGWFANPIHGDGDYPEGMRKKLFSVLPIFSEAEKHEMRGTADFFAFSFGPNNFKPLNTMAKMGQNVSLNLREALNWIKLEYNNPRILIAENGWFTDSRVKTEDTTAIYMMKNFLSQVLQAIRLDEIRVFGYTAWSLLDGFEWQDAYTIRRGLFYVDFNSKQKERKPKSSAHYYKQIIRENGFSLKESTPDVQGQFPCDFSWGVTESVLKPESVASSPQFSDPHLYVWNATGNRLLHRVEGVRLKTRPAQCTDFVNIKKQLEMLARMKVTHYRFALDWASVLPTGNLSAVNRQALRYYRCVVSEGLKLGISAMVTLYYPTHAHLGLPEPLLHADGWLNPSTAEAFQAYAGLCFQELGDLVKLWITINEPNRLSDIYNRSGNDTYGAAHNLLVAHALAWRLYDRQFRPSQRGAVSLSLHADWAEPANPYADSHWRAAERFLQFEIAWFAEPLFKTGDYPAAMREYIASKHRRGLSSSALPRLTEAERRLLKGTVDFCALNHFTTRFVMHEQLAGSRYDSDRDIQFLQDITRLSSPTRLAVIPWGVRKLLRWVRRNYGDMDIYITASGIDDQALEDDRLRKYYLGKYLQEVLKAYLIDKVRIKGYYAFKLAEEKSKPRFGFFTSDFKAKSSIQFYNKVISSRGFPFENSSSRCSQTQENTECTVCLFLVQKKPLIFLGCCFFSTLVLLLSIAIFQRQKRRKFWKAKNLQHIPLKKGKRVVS
T1 sequence (Q99N32 whole entry): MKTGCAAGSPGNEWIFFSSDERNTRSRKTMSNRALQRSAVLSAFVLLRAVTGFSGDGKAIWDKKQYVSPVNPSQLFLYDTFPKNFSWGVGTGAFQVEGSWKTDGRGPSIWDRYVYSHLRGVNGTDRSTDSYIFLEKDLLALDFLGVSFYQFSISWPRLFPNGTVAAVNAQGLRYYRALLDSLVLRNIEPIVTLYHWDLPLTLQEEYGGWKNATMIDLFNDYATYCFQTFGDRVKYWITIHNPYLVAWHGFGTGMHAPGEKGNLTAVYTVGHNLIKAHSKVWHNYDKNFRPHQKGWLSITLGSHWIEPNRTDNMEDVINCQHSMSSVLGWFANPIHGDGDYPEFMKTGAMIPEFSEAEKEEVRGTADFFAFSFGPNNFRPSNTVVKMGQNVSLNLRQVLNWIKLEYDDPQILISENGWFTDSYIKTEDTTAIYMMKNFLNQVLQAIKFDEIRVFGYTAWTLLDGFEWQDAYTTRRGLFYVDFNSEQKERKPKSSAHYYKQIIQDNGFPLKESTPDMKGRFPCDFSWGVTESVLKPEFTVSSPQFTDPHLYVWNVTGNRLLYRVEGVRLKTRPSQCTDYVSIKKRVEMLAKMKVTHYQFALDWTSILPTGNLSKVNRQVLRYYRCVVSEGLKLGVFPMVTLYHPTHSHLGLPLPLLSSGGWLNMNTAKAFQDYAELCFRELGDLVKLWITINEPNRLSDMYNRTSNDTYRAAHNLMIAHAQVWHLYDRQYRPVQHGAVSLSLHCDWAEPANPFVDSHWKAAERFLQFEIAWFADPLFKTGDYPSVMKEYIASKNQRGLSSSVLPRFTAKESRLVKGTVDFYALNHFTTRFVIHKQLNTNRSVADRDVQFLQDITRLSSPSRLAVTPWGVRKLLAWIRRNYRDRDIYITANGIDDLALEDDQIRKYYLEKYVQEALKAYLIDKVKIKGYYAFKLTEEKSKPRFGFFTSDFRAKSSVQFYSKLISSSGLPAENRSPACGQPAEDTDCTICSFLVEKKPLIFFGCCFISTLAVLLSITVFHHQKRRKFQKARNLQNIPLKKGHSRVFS
T1 sequence (P16092 22-822): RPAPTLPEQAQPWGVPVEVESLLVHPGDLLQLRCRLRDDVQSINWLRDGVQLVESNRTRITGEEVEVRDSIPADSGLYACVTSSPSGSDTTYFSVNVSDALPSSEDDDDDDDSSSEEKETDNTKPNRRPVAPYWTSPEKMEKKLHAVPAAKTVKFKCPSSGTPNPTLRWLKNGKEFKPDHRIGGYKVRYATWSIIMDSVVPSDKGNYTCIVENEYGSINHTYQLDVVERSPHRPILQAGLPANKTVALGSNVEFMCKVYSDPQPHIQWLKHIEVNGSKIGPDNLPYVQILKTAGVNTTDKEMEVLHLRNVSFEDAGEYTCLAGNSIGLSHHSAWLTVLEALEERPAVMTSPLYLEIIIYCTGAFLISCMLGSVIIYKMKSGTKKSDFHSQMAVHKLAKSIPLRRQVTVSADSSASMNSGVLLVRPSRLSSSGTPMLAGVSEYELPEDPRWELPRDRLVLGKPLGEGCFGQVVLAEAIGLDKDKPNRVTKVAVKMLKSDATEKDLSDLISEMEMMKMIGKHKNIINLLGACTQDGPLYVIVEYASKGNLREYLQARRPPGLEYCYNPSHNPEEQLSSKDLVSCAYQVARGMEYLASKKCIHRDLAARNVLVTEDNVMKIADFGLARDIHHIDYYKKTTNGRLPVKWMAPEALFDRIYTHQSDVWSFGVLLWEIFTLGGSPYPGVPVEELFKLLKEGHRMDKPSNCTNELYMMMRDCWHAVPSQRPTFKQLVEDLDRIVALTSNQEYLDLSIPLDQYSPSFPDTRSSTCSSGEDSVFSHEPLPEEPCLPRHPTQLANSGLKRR

With “FGF19: native full length FGF19 protein [reference compound]”, the EC50 came out at 65.8 ± 58.2 nM with FGF21 receptor (setting [2]), 148 nM in the assay on FGF21 receptor (setting [3]) and 25.7 ± 21.3 nM with mouse KLB. Besides, the “% maximal activity” value in the assay with FGF21 receptor (FIGS. 9A/9B, full length proteins, Erk1/2 phosphorylation) came out at 27%.

B1: FGF21: native full length mature FGF21 protein (protein, listed as Homo sapiens)
chain: HPIPDSSPLLQFGGQVRQRYLYTDDAQQTEAHLEIREDGTVGGAADQSPESLLQLKALKPGVIQILGVKTSRFLCQRPDGALYGSLHFDPEACSFRELLLEDGYNVYQSEAHGLPLHLPGNKSPHRDPAPRGPARFLPLPGLPPALPEPPGILAPQPPDVGSSDPLSMVGPSQGRSPSYAS
Consider B1, for which the EC50 with FGF21 receptor (setting [2]) was 8.42 ± 4.1 nM; with FGF21 receptor (setting [3]) it was 4.5 nM and 3.3 nM; with mouse KLB, 3.96 ± 1.51 nM.

B2: 0278-1A: fusion of the N-terminus of FGF21 and C-terminal peptide FGF19 A26 (protein, listed as Homo sapiens)
chain: HPIPDSSPLLQFGGQVRQRYLYTDDAQQTEAHLEIREDGTVGGAADQSPESLLQLKALKPGVIQILGVKTSRFLCQRPDGALYGSLHFDPEACSFRELLLEDGYNVYQSEAHGLPLHLPGNKSPHRDPAPRGPARFLPLPGLPPALPEPPGILAPQLETDSMDPFGLVTGLEAVRSPSFEA
Regarding B2, the EC50 was determined as 1.82 ± 0.37 nM in the assay on FGF21 receptor (setting [2]), 1.13 ± 0.28 nM with FGF21 receptor (setting [4]) and 2.15 ± 0.54 nM with mouse KLB.

B3: V2-0278-1A: 0278-1A with A31C, G43C, L98D, L100K, N121D, D127K (protein, listed as Homo sapiens)
chain: HPIPDSSPLLQFGGQVRQRYLYTDDAQQTECHLEIREDGTVGCAADQSPESLLQLKALKPGVIQILGVKTSRFLCQRPDGALYGSLHFDPEACSFREDLKEDGYNVYQSEAHGLPLHLPGDKSPHRKPAPRGPARFLPLPGLPPALPEPPGILAPQLETDSMDPFGLVTGLEAVRSPSFEA
B3: the EC50 with FGF21 receptor (setting [4]) was found to be 0.35 ± 0.12 nM. The “fold higher potency versus 0278-1A” value with FGF21 receptor (cells overexpressing human KLB) is 2-3 ×. In addition, the “change in body weight” value is recorded as “enhanced weight loss” in assay [1] and “superior change in body weight” in assay [1] (listed as 0361). For the same molecule, the food intake entry in assay [1] is “reduced food intake”; in assay [1] (listed as 0361) it was “greater reduction in total food intake”.

B4: FGF21 482A: modified FGF21 N-terminus fused to peptide 0482 (protein, listed as Homo sapiens)
chain: HPIPDSSPLLQFGGQVRQRYLYTDDAQQTECHLEIREDGTVGCAADQSPESLLQLKALKPGVIQILGVKTSRFLCQRPDGALYGSLHFDPEACSFREDLKEDGYNVYQSEAHGLPLHLPGDKSPHRKPAPRGPARFLPLPGLPPALPEPPGILAPQPPDVSSMDPFGLVGPSQGRSPSFEA
For B4, the IC50 (commonly the point on the concentration scale where inhibition reaches its midpoint) in the assay on FGF21 receptor turned out to be 0.22 ± 0.03 nM.

B5: FGF21 470A: modified FGF21 N-terminus fused to peptide 0470 (protein, listed as Homo sapiens)
chain: HPIPDSSPLLQFGGQVRQRYLYTDDAQQTECHLEIREDGTVGCAADQSPESLLQLKALKPGVIQILGVKTSRFLCQRPDGALYGSLHFDPEACSFREDLKEDGYNVYQSEAHGLPLHLPGDKSPHRKPAPRGPARFLPLPGLPPALPEPPGILAPQPPDVGSMDPFGLVGRSQGRSPSFEA
In the assay with FGF21 receptor, B5 had a half-inhibitory concentration (IC50) of 0.61 ± 0.06 nM.

B6: FGF21 486A: modified FGF21 N-terminus fused to peptide 0486 (protein, listed as Homo sapiens)
chain: HPIPDSSPLLQFGGQVRQRYLYTDDAQQTECHLEIREDGTVGCAADQSPESLLQLKALKPGVIQILGVKTSRFLCQRPDGALYGSLHFDPEACSFREDLKEDGYNVYQSEAHGLPLHLPGDKSPHRKPAPRGPARFLPLPGLPPALPEPPGILAPQPPDVGSSDPFGLVGPSQGRSPSFEA
The molecule B6 returned a half-maximal inhibitory concentration (IC50) with FGF21 receptor of 0.21 ± 0.03 nM.

B7: FGF21 480K: analog of FGF21 480A where the C-terminal alanine is replaced with a lysine (protein)
chain: HPIPDSSPLLQFGGQVRQRYLYTDDAQQTECHLEIREDGTVGCAADQSPESLLQLKALKPGVIQILGVKTSRFLCQRPDGALYGSLHFDPEACSFREDLKEDGYNVYQSEAHGLPLHLPGDKSPHRKPAPRGPARFLPLPGLPPALPEPPGILAPQPPDVFSMDPFGLVGPSQGRSPSFEK
Molecule B7 gave an IC50 in the assay on FGF21 receptor of 1.62 ± 0.54 nM.

B8: FGF21 486K: analog of FGF21 486A where the C-terminal alanine is replaced with a lysine (protein)
chain: HPIPDSSPLLQFGGQVRQRYLYTDDAQQTECHLEIREDGTVGCAADQSPESLLQLKALKPGVIQILGVKTSRFLCQRPDGALYGSLHFDPEACSFREDLKEDGYNVYQSEAHGLPLHLPGDKSPHRKPAPRGPARFLPLPGLPPALPEPPGILAPQPPDVGSSDPFGLVGPSQGRSPSFEK
B8 gave an IC50 in the assay on FGF21 receptor of 3.16 ± 0.56 nM.

B9: FGF21 470K: analog of FGF21 470A where the C-terminal alanine is replaced with a lysine (protein)
chain: HPIPDSSPLLQFGGQVRQRYLYTDDAQQTECHLEIREDGTVGCAADQSPESLLQLKALKPGVIQILGVKTSRFLCQRPDGALYGSLHFDPEACSFREDLKEDGYNVYQSEAHGLPLHLPGDKSPHRKPAPRGPARFLPLPGLPPALPEPPGILAPQPPDVGSMDPFGLVGRSQGRSPSFEK
Take B9: in the assay on FGF21 receptor, the IC50 stood at 6.14 ± 1.93 nM.

B10: FGF21 480A: modified FGF21 N-terminus fused to peptide 0480 (protein, listed as Homo sapiens)
chain: HPIPDSSPLLQFGGQVRQRYLYTDDAQQTECHLEIREDGTVGCAADQSPESLLQLKALKPGVIQILGVKTSRFLCQRPDGALYGSLHFDPEACSFREDLKEDGYNVYQSEAHGLPLHLPGDKSPHRKPAPRGPARFLPLPGLPPALPEPPGILAPQPPDVFSMDPFGLVGPSQGRSPSFEA
B10 showed a half-maximal inhibitory concentration (IC50) in the assay on FGF21 receptor of 0.43 ± 0.04 nM. Against the preceding molecule, the IC50 is about 14-fold lower.

B11: FGF21 431A: FGF21 N-terminus (A31C, G43C, L98D, L100K, N121D, D127K) fused to peptide 0431 (protein, listed as Homo sapiens)
chain: HPIPDSSPLLQFGGQVRQRYLYTDDAQQTECHLEIREDGTVGCAADQSPESLLQLKALKPGVIQILGVKTSRFLCQRPDGALYGSLHFDPEACSFREDLKEDGYNVYQSEAHGLPLHLPGDKSPHRKPAPRGPARFLPLPGLPPALPEPPGILAPQPPDVGSMDPFGLVGPSQGRSPSFEA
As to B11, the 50% inhibitory concentration (IC50) with FGF21 receptor worked out at 0.51 ± 0.21 nM.

B12: FGF21 431K: analog of FGF21 431A where the C-terminal alanine is replaced with a lysine (protein)
chain: HPIPDSSPLLQFGGQVRQRYLYTDDAQQTECHLEIREDGTVGCAADQSPESLLQLKALKPGVIQILGVKTSRFLCQRPDGALYGSLHFDPEACSFREDLKEDGYNVYQSEAHGLPLHLPGDKSPHRKPAPRGPARFLPLPGLPPALPEPPGILAPQPPDVGSMDPFGLVGPSQGRSPSFEK
The molecule B12 gave an IC50 in the assay with FGF21 receptor of 4.3 ± 0.07 nM.

These data come from US11351268B2, “FGF21 C-terminal peptide optimization” (INDIANA UNIVERSITY RESEARCH AND TECHNOLOGY CORPORATION, priority 2016, dated 2022).
